How the values were obtained:
mPDGFRβ = mPDGFRβ (Mus musculus, UniProt P05622); assay: Antibody affinity determination (BIAcore, surface plasmon resonance); format: binding
Method: (§1) Antibody affinity determination. The binding kinetics of various Fab and IgG to mPDGFRβ were measured using a BIAcore 3000 biosensor (BIACORE, Inc., Uppsala, Sweden). Briefly, mPDGFRβ was immobilized onto a sensor chip and soluble antibodies were injected at concentrations ranging from 1.5 nM to 100 nM. Sensorgrams were obtained at each concentration and were evaluated using the program, BIA Evaluation 2.0. The affinity constant, Kd, was calculated from the ratio of dissociation rate (koff)/association rate (kon) (Lu, D. et al., 2002; Zhu, Z. et al., 1998; Loizos, N. et al., 2005).

hPDGFRβ = hPDGFRβ (Homo sapiens, UniProt P09619); assay: as above; format: binding; settings: one experiment
Sequence of hPDGFRβ (P09619 33-1106): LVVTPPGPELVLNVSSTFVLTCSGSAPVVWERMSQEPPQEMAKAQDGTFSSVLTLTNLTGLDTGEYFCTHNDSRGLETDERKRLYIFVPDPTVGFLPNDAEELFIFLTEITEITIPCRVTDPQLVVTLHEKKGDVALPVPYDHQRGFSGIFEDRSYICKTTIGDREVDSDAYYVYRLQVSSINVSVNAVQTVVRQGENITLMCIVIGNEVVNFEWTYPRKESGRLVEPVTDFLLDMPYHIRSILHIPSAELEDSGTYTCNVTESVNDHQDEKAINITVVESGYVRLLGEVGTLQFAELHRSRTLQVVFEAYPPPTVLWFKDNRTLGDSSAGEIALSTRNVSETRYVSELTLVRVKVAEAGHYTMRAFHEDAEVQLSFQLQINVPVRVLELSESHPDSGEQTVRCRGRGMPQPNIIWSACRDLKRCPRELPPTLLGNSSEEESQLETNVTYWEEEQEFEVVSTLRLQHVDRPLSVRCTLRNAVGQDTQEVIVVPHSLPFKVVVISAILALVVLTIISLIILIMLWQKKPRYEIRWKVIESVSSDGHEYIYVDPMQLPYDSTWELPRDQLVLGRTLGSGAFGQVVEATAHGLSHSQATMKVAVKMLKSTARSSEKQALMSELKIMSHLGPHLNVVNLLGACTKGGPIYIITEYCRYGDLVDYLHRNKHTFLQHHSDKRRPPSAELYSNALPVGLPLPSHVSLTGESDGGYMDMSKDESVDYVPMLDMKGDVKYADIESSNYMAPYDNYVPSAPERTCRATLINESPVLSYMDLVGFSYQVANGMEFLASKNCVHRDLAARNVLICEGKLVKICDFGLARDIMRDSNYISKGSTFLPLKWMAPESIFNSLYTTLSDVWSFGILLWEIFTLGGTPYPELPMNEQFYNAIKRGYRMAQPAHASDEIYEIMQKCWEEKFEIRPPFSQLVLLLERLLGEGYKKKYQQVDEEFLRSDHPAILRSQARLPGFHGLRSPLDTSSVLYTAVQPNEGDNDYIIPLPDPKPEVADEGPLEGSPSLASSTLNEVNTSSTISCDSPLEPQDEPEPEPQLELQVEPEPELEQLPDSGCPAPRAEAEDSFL
Method: as §1
As determined by BIAcore analysis, 2C5 binds to hPDGFRβ with similar binding characteristics as 1B3 binds to mPDGFRβ. […] However, whereas 1B3 binds to murine PDGFRβ but not human PDGFRβ, 2C5 binds to both proteins. (FIG. 6).

[1] = system: OV-CAR-5 ovarian carcinoma xenograft; assay: Subcutaneous tumor xenograft model; format: in vivo, mouse; settings: for Tumor Volume T/C %: OVCAR-5 xenograft, monotherapy
Method: (§2) Six xenograft models, SK-OV-3, OV-CAR-8, BxPC-3, OV-CAR-5, Caki-1 and NCI-H460 (A to F, respectively) were used to examine the effects of 1B3 on xenograft tumors in athymic nude mice. Mice with established tumors (˜250-300 mm^3) were randomly grouped and treated with 1B3, normal human IgG, or saline by intraperitoneal injection twice weekly (except for BxPC-3 model where the mice were treated three times a week) at the dose indicated. Tumor volumes were measured twice a week and are presented as mean±SEM. *1 indicates the loss of one mouse due to severe illness. 1B3 binds to mouse, but not human, PDGFRβ. Accordingly, the observed responses to treatment result from inhibition of stimulation of host cells.
(§3) Antitumor activity of anti-mPDGFRβ antibody in tumor xenograft models. Six human xenograft tumor models, including three ovarian carcinoma (SK-OV-3, OV-CAR-5 and OV-CAR-8), one pancreatic carcinoma (BxPC3), one lung carcinoma (NCI-H460), and one kidney carcinoma (Caki-1), were used to assess the antitumor activity of 1B3 in vivo. Athymic (nu/nu) mice (female, 7-8 weeks of age) were housed for 7-10 days before xenograft implantation. Each mouse was injected subcutaneously with 3-10×10^6 cells of SK-OV-3, OVCAR-5, OVCAR-8, Caki-1, BxPC3 or NCI-H460 tumor cells. When tumors reached approximately 250-300 mm^3, mice were randomized into groups of 10 to 12 animals each and treated by intraperitoneal injection, 2 to 3 times per week, with 1B3, DC101, or 1B3 in combination with DC101. Human IgG and/or USP saline were used as control groups. Tumor sizes and mouse body weight were measured twice a week. Tumor volume was calculated using the formula: π/6×(length×width^2), where length=longest diameter and width=diameter perpendicular to length. The ratio of average tumor volume in the treatment group versus that in the control group (T/C %) was calculated. Statistic analysis was performed by Student's t-test.
(§4) To study the antitumor effects of monotherapy with an anti-PDGFRβ antibody, mice were treated with 1B3, normal human IgG, or saline twice weekly by intraperitoneal injections. In SK-OV-3 model, tumor-bearing mice were given 1B3 at 6, 20, or 60 mg/kg dose.
(§5) Antitumor activity of anti-PDGFRβ antibody in tumor xenograft models. The five human xenograft tumor models described above (OVCAR-5 and OVCAR-8, BxPC3, NCI-H460, and Caki-1) were used to assess the antitumor activity of 2C5 in vivo. 2C5 which binds to and inhibits human PDGFRβ receptors of the tumor and mouse receptors of the vasculature was compared to 1B3 which bound only to mouse vasculature. […] (FIG. 9; Table 2).

[2] = system: OV-CAR-8 ovarian carcinoma xenograft; assay: Subcutaneous tumor xenograft model; format: in vivo, mouse; settings: for Tumor Volume T/C %: OVCAR-8 xenograft, monotherapy
Method: as §2, §3, §4, §5

[3] = system: BxPC-3 pancreatic carcinoma xenograft; assay: Subcutaneous tumor xenograft model; format: in vivo, mouse; settings: for Tumor Volume T/C %: BxPC3 xenograft, monotherapy
Method: (§6) Six xenograft models, SK-OV-3, OV-CAR-8, BxPC-3, OV-CAR-5, Caki-1 and NCI-H460 (A to F, respectively) were used to examine the effects of 1B3 on xenograft tumors in athymic nude mice. Mice with established tumors (˜250-300 mm^3) were randomly grouped and treated with 1B3, normal human IgG, or saline by intraperitoneal injection twice weekly (except for BxPC-3 model where the mice were treated three times a week) at the dose indicated.
(§7) Subcutaneous xenografts of BxPC-3 (A) or 5×10^6 NCI-H460 (B) were established in female athymic (nu/nu) mice. When tumors reached ˜300-350 mm^3, mice were randomized and divided into four groups (n=12), and treated with USP saline, 40 mg/kg of 1B3, 40 mg/kg of DC101 or 40 mg/kg 1B3 plus 40 mg/kg DC101, three times a week.
as §3, with “Six” for “Antitumor activity of anti-mPDGFRβ antibody in tumor xenograft models. Six”
as §4
(§8) Athymic nude mice bearing xenografted tumors of 300-350 mm^3 size were randomized and divided into four treatment groups (n=12/group), and were treated by intraperitoneal injections three times a week with saline, 1B3 (40 mg/kg), DC101 (40 mg/kg), or 1B3 (40 mg/kg) plus DC101 (40 mg/kg).
(§9) The five human xenograft tumor models described above (OVCAR-5 and OVCAR-8, BxPC3, NCI-H460, and Caki-1) were used to assess the antitumor activity of 2C5 in vivo.

[4] = system: NCI-H460 lung carcinoma xenograft; format: in vivo; settings: for Tumor Volume T/C %: NCI-H460 xenograft, monotherapy
Method: as §6, §7
as §3, with “Six” for “Antitumor activity of anti-mPDGFRβ antibody in tumor xenograft models. Six”
as §4, §8, §9

Sequence of mPDGFRβ (P05622 32-1098): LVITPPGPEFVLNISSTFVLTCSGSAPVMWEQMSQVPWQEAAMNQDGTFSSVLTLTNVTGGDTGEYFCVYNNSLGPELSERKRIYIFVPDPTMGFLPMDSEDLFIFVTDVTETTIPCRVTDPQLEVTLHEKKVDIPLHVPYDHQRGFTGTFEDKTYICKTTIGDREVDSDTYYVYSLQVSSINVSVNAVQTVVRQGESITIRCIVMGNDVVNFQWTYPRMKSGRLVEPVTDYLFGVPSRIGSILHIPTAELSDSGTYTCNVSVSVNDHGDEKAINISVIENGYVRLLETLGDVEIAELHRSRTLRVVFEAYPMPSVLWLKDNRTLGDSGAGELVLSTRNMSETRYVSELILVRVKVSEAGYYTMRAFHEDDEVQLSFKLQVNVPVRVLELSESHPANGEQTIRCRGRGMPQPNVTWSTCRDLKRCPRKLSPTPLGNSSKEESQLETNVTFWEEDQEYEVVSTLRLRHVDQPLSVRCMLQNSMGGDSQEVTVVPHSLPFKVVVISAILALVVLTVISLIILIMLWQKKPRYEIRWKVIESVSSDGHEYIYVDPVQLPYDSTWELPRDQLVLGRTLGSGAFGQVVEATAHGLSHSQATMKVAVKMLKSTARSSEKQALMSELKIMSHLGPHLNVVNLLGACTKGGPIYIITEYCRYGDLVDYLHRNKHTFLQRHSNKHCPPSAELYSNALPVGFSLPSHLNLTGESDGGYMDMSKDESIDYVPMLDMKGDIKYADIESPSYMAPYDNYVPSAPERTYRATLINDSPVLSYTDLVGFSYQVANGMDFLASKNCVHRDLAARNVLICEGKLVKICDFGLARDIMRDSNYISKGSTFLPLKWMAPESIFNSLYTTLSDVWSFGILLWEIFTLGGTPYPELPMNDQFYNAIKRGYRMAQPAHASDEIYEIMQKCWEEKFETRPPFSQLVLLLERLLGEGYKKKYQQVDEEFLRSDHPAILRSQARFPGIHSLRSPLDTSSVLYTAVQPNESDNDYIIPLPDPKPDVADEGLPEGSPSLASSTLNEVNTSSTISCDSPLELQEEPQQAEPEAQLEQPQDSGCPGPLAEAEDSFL

B1: 1B3: human anti-mouse PDGFRβ antibody from Fab phage display library, human κ/γ1 constant regions; SEQ ID NOS in Table 1 (antibody, listed as Homo sapiens, V domains shown)
VH: QVQLQESGGGLVKPGGSLRLSCAASGFTFSSYSMNWVRQAPGKGLEWVSSISSSSSYIYYADSVKGRFTISRDNSKNTLYLQMNSLRAEDTAVYYCAKGGRPLLVFDFWGQGTLVTVS
VL: EIVMTQSPGTLSLSPGERATLSCRASQSVSSSYLAWYQQKPGQAPRLLIYDASKRATGIPARFSGSGSGTDFTLTISTLESEDSAVYYCQQRGYWPPITFGQGTRLEIKR
modifications: human kappa/gamma1 constant regions
increase of affinity for mPDGFRβ of IgG over its Fab form (mPDGFRβ; BIAcore): approximately 57 times
Kd (hPDGFRβ): 0.0417 nM
antitumor activity ([1]; OV-CAR-5, 40 mg/kg three times per week or 60 mg/kg twice weekly): failed to show any antitumor activity
Tumor Volume T/C % [1]: 92%
tumor growth inhibition ([2]; OV-CAR-8, 60 mg/kg i.p. twice weekly): almost completely blocked the growth
Tumor Volume T/C % [2]: 43%
tumor regression, number of mice ([3]; BxPC3, 40 mg/kg each antibody i.p. three times a week): no regressions
antitumor activity ([3]; BxPC3, monotherapy 40 mg/kg i.p. three times a week): failed to show any antitumor activity
Tumor Volume T/C % [3]: 100%
T/C % on day 22 post treatment ([4]; NCI-H460, 40 mg/kg each antibody i.p. three times a week): 66%
tumor growth inhibition ([4]; NCI-H460, 60 mg/kg i.p. twice weekly): significantly slowed the growth
Tumor Volume T/C % [4]: 60%

B2: 2C5: PDGFRβ-specific human antibody binding both human and murine PDGFRβ; SEQ ID NOS in Table 1 (antibody, listed as Homo sapiens, V domains shown)
VH: QVQLVQSGAEVKKPGSSVKVSCKASGGTFSSYAISWVRQAPGQGLEWMGRIIPILGIANYAQKFQGRVTITADKSTSTAYMELSSLRSEDTAVYYCARDMGSRNYYYFYWGQGTLVTVSS
VL: EIVLTQSPATLSLSPGERATLSCRASQSVGRYLAWYQQKPGQAPRLLIYGASNRATGIPARFSGSGSGTDFTLTISSLEPEDFAVYYCQQRSNWPLTFGGGTKVEIK
Kd (mPDGFRβ; surface plasmon resonance, one experiment): 0.0605 nM
Kd (hPDGFRβ): 0.0136 nM
Tumor Volume T/C % [1]: 84%
Tumor Volume T/C % [2]: 39%
Tumor Volume T/C % [3]: 100%
Tumor Volume T/C % [4]: 60%

Reference: US7740850B2, “PDGFRβ-specific antibodies” (ImClone, LLC, priority 2007, dated 2010)
